The record followed here is patent US20240301076A1.

The target of the assay is human CXCR2 (human) (UniProt P25025). The assay can be described thus: cell-based or functional assay.
Chain of human CXCR2 (human) (P25025 whole entry): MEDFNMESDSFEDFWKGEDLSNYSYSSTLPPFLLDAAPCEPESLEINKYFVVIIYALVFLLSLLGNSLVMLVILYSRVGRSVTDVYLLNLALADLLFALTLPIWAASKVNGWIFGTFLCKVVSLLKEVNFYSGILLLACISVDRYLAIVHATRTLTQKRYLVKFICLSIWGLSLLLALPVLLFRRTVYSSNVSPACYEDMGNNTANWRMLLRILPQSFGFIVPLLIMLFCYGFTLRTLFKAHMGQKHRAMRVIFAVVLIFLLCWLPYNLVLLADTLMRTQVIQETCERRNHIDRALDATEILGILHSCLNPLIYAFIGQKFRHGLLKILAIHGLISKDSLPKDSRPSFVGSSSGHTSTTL

B1: human CXCL7 (ligand, UniProt P02775 59-128, looked up)
chain: AELRCMCIKTTSGIHPKNIQSLEVIGKGTHCNQVEVIATLKDGRKICLDPDAPRIKKIVQKKLAGDESAD
B1: the EC50 mean, Tango assay was 0.0396 µM and the EC50 mean, calcium flux assay was determined as 0.00714 µM.
